According to patent publication US20230220016A1:

Target: 434cI-SH2 (SH2 domain of ABL1 kinase fused to 434 cI repressor) (434 phage) (UniProt P16117)
Experiment: cell-based or functional assay

RpoZ-HA4 (monobody HA4 fused to RpoZ) (from UniProt P0A800 1-91) (designed binder)
transcriptional activation, bacterial 2-hybrid, sensitized promoter PlacZ-opt: 200 fold | transcriptional activation, bacterial 2-hybrid, wild type PlacZ promoter: 17 fold
